Consider 3 molecules from patent US20090233850A1 (PHILADELPHIA HEALTH AND EDUCATION CORPORATION D B A DREXEL …, published 2009).

The target in assay [1] is T1, HIV-1 SF162 gp120 (Clade B) (HIV-1 SF162, UniProt P19550 32-502).
T1 construct: domain: gp120
As to the kind of experiment: ELISA, 100 ng gp120 adsorbed on the plate, 50 nM CVN, detection with polyclonal anti-CVN, BSA background subtracted.

Assay [2] concerns the target T2, recombinant monomeric HIV-1 YU2 gp120, produced in Drosophila S2 cells (HIV-1 YU2, UniProt P35961 32-498, limits assumed, glycosylated (high-mannose glycans are the CVN binding sites)).
T2 construct: domain: gp120
Kind of assay: competition ELISA, adsorbed YU2 gp120, increasing L5 with 2 ug/ml mAb 17b as competitor; inhibition of mAb 17b binding to gp120, ELISA.

For assay [3], the target named is T2, recombinant monomeric HIV-1 YU2 gp120, …. Kind of assay: competition ELISA on plate-adsorbed YU2 gp120; competitor mAb 2G12 at 50 ug/ml; percent of control without L5.
Assay [4] has the same target. As to the kind of experiment: competition ELISA on plate-adsorbed YU2 gp120; blocked ligand sCD4 at 0.5 ug/ml, detected with anti-CD4; percent of uninhibited control.
The target is the same in assay [5]. Kind of assay: ELISA, 100 ng YU2 gp120 adsorbed on the plate, serial dilutions of L5, detection with polyclonal anti-CVN, BSA background subtracted.
For assay [6] the target is unchanged. As to the kind of experiment: competition ELISA on plate-adsorbed YU2 gp120; competitor mAb F105 at a 1:20,000 dilution; percent of control without L5.
Assay [7] has the same target. Kind of assay: ELISA, 100 ng YU2 gp120 adsorbed on the plate, serial dilutions of L5-S12p1, detection with polyclonal anti-CVN, BSA background subtracted.
Experimental: Error bars indicate standard deviation.
YU2 was adsorbed to a 96-well EIA/RIA plate overnight at 4° C.
Ninety-six well plates (Corning) were coated with either 100 ng of the indicated gp120 or BSA overnight at 4° C. The wells were washed three times with 1×PBS-T (PBS, 0.1% Tween) and non-specific binding blocked with 1% (wt/vol) BSA in PBS. […] After a one hour incubation, the wells were washed and incubated with a 1/2500 dilution of anti-rabbit HRP (Amersham) for one hour at room temperature. The wells were washed three times and the extent of binding was then determined by OPD (o-phenylenediamine, Sigma) and absorbance measured at 450 nm.

B1: cyanovirin-N (CVN), recombinant, periplasmic expression in E. coli, hexa-histidine tagged (other)
chain: LGKFSQTCYNSAIQGSVLTSTCERTNGGYNTSSIDLNSVIENVDGSLKWQPSNFIETCRNTQLAGSSELAAECKTRAQQFVSTKINLDDHIANIDGTLKYEHHHHHH
notes: Lectin, 11 kDa
B1: the binding result in assay [1] was “binds”.

B2: L5 chimera (CVN-12p1): CVN, linker of five Gly4Ser repeats, 12p1, C-terminal hexa-histidine tag (other)
chain: LGKFSQTCYNSAIQGSVLTSTCERTNGGYNTSSIDLNSVIENVDGSLKWQPSNFIETCRNTQLAGSSELAAECKTRAQQFVSTKINLDDHIANIDGTLKYEGSGGGGSGGGGSGGGGSGGGGSGGGGSRINNIPWSEAMMHHHHHH
notes: Fusion protein, about 15 kDa; also called the chimera
Turning to B2, the IC50 in assay [2] is 38 nM. Besides, the entries for the “IC50 (read off the curve)” value in assay [3], in assay [4] and in assay [6] were ~40 nM, ~20 nM and ~20 nM, respectively. For the same molecule, the concentration for a half-maximal effect (EC50 (read off the curve)) in assay [5] was ~9 nM.

B3: L5-S12p1: chimera of CVN, linker of five Gly4Ser repeats and scrambled (non-sense) 12p1 peptide (other)
chain: LGKFSQTCYNSAIQGSVLTSTCERTNGGYNTSSIDLNSVIENVDGSLKWQPSNFIETCRNTQLAGSSELAAECKTRAQQFVSTKINLDDHIANIDGTLKYEGSGGGGSGGGGSGGGGSGGGGSGGGGSWRIMMIPSEANNHHHHHH
notes: check the entry type; also called scrambled chimera
On to B3, for which the “EC50 (read off the curve)” value in assay [7] was ~20 nM.
